This data set deals with the molecule itself. Put plainly: SAXS; in solution at 293 K, at least three specimen concentrations, extrapolated to infinite dilution; in the dark (D450), under blue-light irradiation (S390) and after dark reversion; apparent molecular weight from I(S=0,C=0) against hen egg-white lysozyme or the buffer's scattering.

B1: LOV1 fragment of Arabidopsis thaliana phototropin2 (domain or fragment, UniProt P93025 117-265, looked up)
chain: FPRVSQELKTALSTLQQTFVVSDATQPHCPIVYASSGFFTMTGYSSKEIVGRNCRFLQGPDTDKNEVAKIRDCVKNGKSYCGRLLNYKKDGTPFWNLLTVTPIKDDQGNTIKFIGMQVEVSKYTEGVNDKALRPNGLSKSLIRYDARQK
notes: phototropin2 (phot2), Arabidopsis thaliana, LOV1 fragment, residues 117-265 of the 915-residue protein; also called phot2 LOV1
For B1, the “stoichiometry N” value was 2.

B2: Asp720Asn-mutated full-length phototropin2 of Arabidopsis thaliana (natural protein)
chain: MERPRAPPSPLNDAESLSERRSLEIFNPSSGKETHGSTSSSSKPPLDGNNKGSSSKWMEFQDSAKITERTAEWGLSAVKPDSGDDGISFKLSSEVERSKNMSRRSSEESTSSESGAFPRVSQELKTALSTLQQTFVVSDATQPHCPIVYASSGFFTMTGYSSKEIVGRNCRFLQGPDTDKNEVAKIRDCVKNGKSYCGRLLNYKKDGTPFWNLLTVTPIKDDQGNTIKFIGMQVEVSKYTEGVNDKALRPNGLSKSLIRYDARQKEKALDSITEVVQTIRHRKSQVQESVSNDTMVKPDSSTTPTPGRQTRQSDEASKSFRTPGRVSTPTGSKLKSSNNRHEDLLRMEPEELMLSTEVIGQRDSWDLSDRERDIRQGIDLATTLERIEKNFVISDPRLPDNPIIFASDSFLELTEYSREEILGRNCRFLQGPETDQATVQKIRDAIRDQREITVQLINYTKSGKKFWNLFHLQPMRDQKGELQYFIGVQLDGSDHVEPLQNRLSERTEMQSSKLVKATATNVDEAVRELPDANTRPEDLWAAHSKPVYPLPHNKESTSWKAIKKIQASGETVGLHHFKPIKPLGSGDTGSVHLVELKGTGELYAMKAMEKTMMLNRNKAHRACIEREIISLLDHPFLPTLYASFQTSTHVCLITDFCPGGELFALLDRQPMKILTEDSARFYAAEVVIGLEYLHCLGIVYRDLKPENILLKKDGHIVLANFDLSFMTTCTPQLIIPAAPSKRRRSKSQPLPTFVAEPSTQSNSFVGTEEYIAPEIITGAGHTSAIDWWALGILLYEMLYGRTPFRGKNRQKTFANILHKDLTFPSSIPVSLVGRQLINTLLNRDPSSRLGSKGGANEIKQHAFFRGINWPLIRGMSPPPLDAPLSIIEKDPNAKDIKWEDDGVLVNSTDLDIDLF
notes: phototropin2 (phot2), Arabidopsis thaliana, full length, residues 1-915, with Asp720Asn; also called phot2; full-length phot2
Take B2: the “stoichiometry N” value is 2.

Values taken from article PMC7555306, “Domain Organization in Plant Blue-Light Receptor Phototropin2 of Arabidopsis thaliana Studied by Small-Angle X-ray Scattering” (International Journal of Molecular Sciences, 2020).
